Laboratory results: patent US20210309754A1 (JCR PHARMACEUTICALS, published 2021)

Molecular target: T1, recombinant monkey TfR (r monkey TfR: Sino Biological Inc.), cynomolgus monkey TfR extracellular region with … (cynomolgus monkey (Macaca fascicularis), UniProt Q5RDH6 89-760 (Pongo abelii entry))
T1 construct: Bought (Sino Biological); also called r monkey TfR-ECD (Histag); not shown: histidine tag attached to the N-terminus
T1 chain: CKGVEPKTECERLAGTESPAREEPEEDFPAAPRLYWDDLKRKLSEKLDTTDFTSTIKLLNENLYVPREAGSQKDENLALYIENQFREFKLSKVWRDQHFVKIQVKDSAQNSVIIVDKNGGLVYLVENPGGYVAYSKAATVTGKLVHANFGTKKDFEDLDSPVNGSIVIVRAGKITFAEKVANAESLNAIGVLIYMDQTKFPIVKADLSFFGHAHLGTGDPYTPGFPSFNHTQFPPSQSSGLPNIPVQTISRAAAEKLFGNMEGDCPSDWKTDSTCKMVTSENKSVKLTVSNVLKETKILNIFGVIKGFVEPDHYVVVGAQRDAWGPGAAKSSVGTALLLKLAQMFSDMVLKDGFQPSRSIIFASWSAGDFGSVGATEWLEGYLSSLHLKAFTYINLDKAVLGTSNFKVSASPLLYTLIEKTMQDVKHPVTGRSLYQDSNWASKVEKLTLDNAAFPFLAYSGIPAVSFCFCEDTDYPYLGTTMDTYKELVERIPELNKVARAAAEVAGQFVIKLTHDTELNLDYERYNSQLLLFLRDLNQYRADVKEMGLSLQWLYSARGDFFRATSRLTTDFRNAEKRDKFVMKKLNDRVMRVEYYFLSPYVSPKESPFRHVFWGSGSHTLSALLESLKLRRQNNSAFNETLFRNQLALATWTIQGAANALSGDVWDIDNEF
Test: BLI, Octet RED96, His-TfR ECD on Ni-NTA sensor
Method: By measuring the variations of this shift between the interfering waves, determination of the number of the molecules bound to the layer of the biomolecules immobilized to the sensor tip surface and kinetic analysis of it can be performed in real time. The measurement was performed according generally to the operating manual attached to Octet RED96. As a human TfR, a recombinant human TfR (r human TfR: Sino Biological Inc.) was used, which had the amino acid sequence of the hTfR extracellular region, i.e., the cysteine residue at the position 89th from the N-terminal side to the phenylalanine at the C-terminus, of the amino acid sequence set forth as SEQ ID NO:1, with a histidine tag attached to the N-terminus. As a monkey TfR, a recombinant monkey TfR (r monkey TfR: Sino Biological Inc.) was used, which had the amino acid sequence of the cynomolgus monkey TfR extracellular region, i.e., the cysteine residue at the position 89th from the N-terminal side to the phenylalanine at the C-terminus, of the amino acid sequence set forth as SEQ ID NO:2, with a histidine tag attached to the N-terminus. […]

B1: anti-hTfR antibody No. 2 (antibody, V domains shown)
VH: EVQLQESGAELVRPGVSVKISCKGSGYTFTDYVMHWVRQSHAKSLEWIGVISTYYGHGSYNQRFKGKATMTVDKSSSTAYLELVRLTSEDSAIYYCVRGGYGSSSLAGNFDVWGAGTTVTVSS
VL: DIVLTQSPATLSVTPGDSVSLSCRASQSISNNLQWYQQKSHESPRLLIKYASQSISGIPSRFSGSGSGTDFTLSINSVETEDFGMYFCQQSNSWPRTFGAGTKLELKR
notes: Mouse monoclonal antibody from a hybridoma, purified on Protein G; also called mouse anti-hTfR antibody No. 2; antibody of Clone 2 line
koff: 1.75e-05 s⁻¹

B2: anti-hTfR antibody No. 6 (antibody, V domains shown)
VH: EVQLQESGPGLVAPSQSLSITCSVSGFSLSTYGVYWVRQPPGKGLEWLGIIWGDGSTNYHSALISRLTISKDNSKSQVFLKLNSLQTADTATYYCAKPDDVWGAGTTVTVSS
VL: DIVLTQTPSSLSASLGERVSLTCRASQEISGYLSWLQQKPDGTIKRLIYAASTLDSGVPKRFSGSRSGSDYSLTISSLESEDFADYYCLQYSSYPRTFGGGTKLEIK
notes: Mouse monoclonal antibody from a hybridoma, purified on Protein G; also called mouse anti-hTfR antibody No. 6; antibody of Clone 6 line
Kd: 0.477 nM
